From patent US20250060359A1, “FUSION PROTEINS AND METHODS FOR MONITORING FIBRONECTIN MATRIX ASSEMBLY” (The Trustees of Princeton University, priority 2023, published 2025)
Where no end group is shown, it is not given here.

How the values were obtained:
FN matrix = test: Immunoblot comparing effects of S3 and S20 against a control on formation of FN matrix (FIG. 2); type: cell-based
Description: FIG. 2 is an immunoblot comparing the effects of S3 and S20 against a control on the formation of FN matrix.
Referring to FIG. 2, when incubated with cells during matrix assembly, S20 can enhance matrix formation by 60%.

FN matrix assembly = test: FN matrix accumulation in the presence of phage clones (immunofluorescence, immunoblots of DOC-insoluble FN); type: cell-based
Source text: Beyond the ability of the isolated phage clones to bind FN matrix, their potential capacity to modulate matrix accumulation was considered. Given that the clones were panned against a FN fragment containing the assembly domain, it was questioned if they might modulate FN matrix assembly.

FN fibrils [1] = biological target: T1, FN fibrils (Mus musculus, UniProt P11276); test: Phage binding to FN fibrils of fixed confluent NIH 3T3 fibroblasts (co-staining for M13 phage and FN); type: cell-based
T1 construct: endogenous in cells; host or cells: NIH 3T3 fibroblasts
T1 sequence (P11276 33-2477): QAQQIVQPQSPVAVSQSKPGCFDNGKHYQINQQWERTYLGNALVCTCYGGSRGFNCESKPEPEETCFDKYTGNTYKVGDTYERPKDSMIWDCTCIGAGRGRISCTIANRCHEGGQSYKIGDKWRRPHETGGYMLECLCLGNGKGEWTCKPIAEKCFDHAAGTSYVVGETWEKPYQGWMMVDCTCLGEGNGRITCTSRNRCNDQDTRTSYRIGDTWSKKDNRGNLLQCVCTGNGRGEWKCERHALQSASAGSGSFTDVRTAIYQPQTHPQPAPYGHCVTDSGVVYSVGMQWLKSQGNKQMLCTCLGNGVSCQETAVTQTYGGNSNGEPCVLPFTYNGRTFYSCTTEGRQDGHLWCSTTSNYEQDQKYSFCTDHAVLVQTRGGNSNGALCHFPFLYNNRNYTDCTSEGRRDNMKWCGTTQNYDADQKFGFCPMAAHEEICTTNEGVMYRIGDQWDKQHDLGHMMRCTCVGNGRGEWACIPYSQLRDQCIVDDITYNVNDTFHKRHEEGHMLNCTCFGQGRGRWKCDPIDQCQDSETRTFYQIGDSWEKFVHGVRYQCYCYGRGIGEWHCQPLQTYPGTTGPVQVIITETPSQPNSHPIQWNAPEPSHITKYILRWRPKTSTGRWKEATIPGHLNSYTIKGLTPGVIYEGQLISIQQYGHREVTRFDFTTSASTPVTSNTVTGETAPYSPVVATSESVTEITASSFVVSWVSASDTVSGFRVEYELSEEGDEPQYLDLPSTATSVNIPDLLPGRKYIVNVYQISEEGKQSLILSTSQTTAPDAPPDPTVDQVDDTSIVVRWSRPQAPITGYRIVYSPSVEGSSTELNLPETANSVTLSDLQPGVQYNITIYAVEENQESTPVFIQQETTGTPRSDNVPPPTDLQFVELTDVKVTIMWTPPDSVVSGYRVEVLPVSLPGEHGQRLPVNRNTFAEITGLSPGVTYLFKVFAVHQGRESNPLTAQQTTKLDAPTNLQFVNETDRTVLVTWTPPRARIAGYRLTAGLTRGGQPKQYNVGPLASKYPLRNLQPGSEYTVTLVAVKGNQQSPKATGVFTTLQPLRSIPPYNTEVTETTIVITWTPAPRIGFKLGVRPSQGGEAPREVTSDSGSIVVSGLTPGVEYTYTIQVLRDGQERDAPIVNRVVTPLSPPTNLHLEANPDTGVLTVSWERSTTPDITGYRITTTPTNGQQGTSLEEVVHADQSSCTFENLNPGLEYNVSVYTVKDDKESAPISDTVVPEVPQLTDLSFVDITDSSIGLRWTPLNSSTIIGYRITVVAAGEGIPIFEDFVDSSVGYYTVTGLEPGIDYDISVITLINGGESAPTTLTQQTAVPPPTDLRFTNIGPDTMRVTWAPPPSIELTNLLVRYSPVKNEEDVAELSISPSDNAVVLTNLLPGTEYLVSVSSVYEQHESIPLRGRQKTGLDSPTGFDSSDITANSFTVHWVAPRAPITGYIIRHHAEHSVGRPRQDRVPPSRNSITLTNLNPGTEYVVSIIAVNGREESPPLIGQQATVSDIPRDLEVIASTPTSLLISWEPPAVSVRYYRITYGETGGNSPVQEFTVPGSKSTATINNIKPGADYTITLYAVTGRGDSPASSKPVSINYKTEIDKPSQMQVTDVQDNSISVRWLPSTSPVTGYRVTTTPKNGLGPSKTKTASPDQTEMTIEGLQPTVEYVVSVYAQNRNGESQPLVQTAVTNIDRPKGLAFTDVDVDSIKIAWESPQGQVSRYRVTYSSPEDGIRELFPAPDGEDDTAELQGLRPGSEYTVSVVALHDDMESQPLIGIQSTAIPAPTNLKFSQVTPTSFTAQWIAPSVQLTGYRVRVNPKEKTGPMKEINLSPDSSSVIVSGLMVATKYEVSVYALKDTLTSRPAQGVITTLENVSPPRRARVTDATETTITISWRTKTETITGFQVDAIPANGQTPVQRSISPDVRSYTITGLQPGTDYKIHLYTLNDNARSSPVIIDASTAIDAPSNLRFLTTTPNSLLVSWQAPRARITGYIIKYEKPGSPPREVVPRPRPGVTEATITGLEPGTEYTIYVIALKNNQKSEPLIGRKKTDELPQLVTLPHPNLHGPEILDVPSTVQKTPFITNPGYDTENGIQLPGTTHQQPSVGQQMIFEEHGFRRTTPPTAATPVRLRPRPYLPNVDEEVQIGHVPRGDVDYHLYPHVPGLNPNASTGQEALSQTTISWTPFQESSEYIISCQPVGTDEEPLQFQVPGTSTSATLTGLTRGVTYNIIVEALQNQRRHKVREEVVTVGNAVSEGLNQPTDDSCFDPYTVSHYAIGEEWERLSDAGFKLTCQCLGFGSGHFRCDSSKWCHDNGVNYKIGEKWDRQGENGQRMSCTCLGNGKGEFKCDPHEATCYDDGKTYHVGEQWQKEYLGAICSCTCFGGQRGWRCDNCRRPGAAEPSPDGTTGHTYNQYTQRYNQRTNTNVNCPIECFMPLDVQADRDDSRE
Description: Confluent NIH 3T3 fibroblasts, which have been well characterized to assemble a dense, fibrillar FN matrix, were used to test phage binding to FN fibrils. Cells were fixed, blocked, and incubated with individual phage clones, then co-stained with antibodies to M13 phage and FN and imaged. Most phage-monolayers looked like the negative control and contained infrequent phage signals that were not aligned with the FN matrix. Several of the clones generated a pattern of phage staining that had some co-localization with FN fibrils but also appeared to contain some phage aggregates.

FN fibrils [2] = biological target: T1, FN fibrils; test: Phage clones incubated with growing fibroblast cultures actively assembling matrix; overlap of phage and FN signal; type: cell-based; settings: for Manders' coefficient with a higher concentration of phage: high concentration phage stocks
Description: (§1) FIGS. 4A-4C are representative photomicrographs of fixed and stained assembled matrices after clone 2 (1×10^12 pfu/mL) was incubated with NIH 3T3 fibroblasts for 2 days, and specifically stained for FN (4A) and phage (4B), as well as a merge of the two images (4C). Insets in 4A and 4B are maximum intensity projections of a single fibril obtained through confocal microscopy from the S2 condition for FN (4A) and phage (4B).
Phage S2 and S2-based phages, effectively label fibrils as they are being assembled.
(§2) To further analyze the interaction between the isolated phages and FN fibrils, each phage clone was incubated with growing fibroblast cultures that were actively assembling matrix. Monolayers were then stained for both phage and FN and resulting images were analyzed to assess the amount of overlap between phage and FN signal. […] To quantify the extent of phage overlap with FN fibrils, Manders' coefficients were generated, which define the percent overlap between the two image channels. Manders' coefficients reveled the percent overlap of the phage fluorescence with FN was highest for clone S2 (Manders' coefficient 0.91). A summary of all Manders' coefficients and phage characterizations can be found in Table 2.
Clone 2 staining was extremely robust and images of matrix assembled in the presence of a higher concentration of phage appeared to have more coverage of fibrils by phage. […] For clone 12, it appears that adding more phage led to higher background staining. […] This is further supported by confocal images depicting a single fibril from a clone 2 incubation in which there is significant overlap between phage and FN at the level of a single fibril.

FN fibrils [3] = biological target: T1, FN fibrils; test: Fusion proteins tested in fibroblast culture for FN fibril binding; type: cell-based
Description: (§3) Following purification using glutathione affinity chromatography, the fusion proteins was tested in fibroblast culture to determine if they maintained the properties seen in the phage.

FN matrix accumulation = test: Fusion proteins tested in fibroblast culture for impact on matrix accumulation; type: cell-based
Description: as §3

[4] = substrate: FN matrix (fibronectin fibrils) assembled by NIH 3T3 fibroblasts (UniProt P11276); test: phage incubated with fibroblasts assembling matrix; overlap of phage fluorescence with FN stain
Chain of FN matrix (fibronectin fibrils) assembled by NIH 3T3 fibroblasts (UniProt P11276) (P11276 33-2477 limits assumed): as the sequence (P11276 33-2477) above

[5] = biological target: T2, FN matrix (fibronectin fibrils) assembled by NIH 3T3 fibroblasts (UniProt P11276 33-2477, limits assumed); test: as above
T2 construct: whole, on cells; Fibrillar, cell-assembled fibronectin matrix; also called FN fibrils
T2 sequence (P11276 33-2477 limits assumed): as the sequence (P11276 33-2477) above
Description: as §1, with “(1×10¹²” for “(1×10^12”
as §2

[6] = substrate: FN matrix (fibronectin fibrils) assembled by NIH 3T3 fibroblasts (UniProt P11276); test: cell-based or functional assay

With NHVALWGTGTAS [Clone S3] the “effect on matrix formation” value (FN matrix) was “inhibits matrix formation”.

In the case of NHVALWGTGTAS [Clone 3, 5, 27, 28], the “FN matrix accumulation by immunofluorescence” value (from here on “FN matrix accumulation”) (FN matrix assembly) is reported as “without repressing FN matrix immunofluorescence signal”.

GSYDWTKLPGLE [Clone 2, 16, 31, 48] was tested, and the “pattern of phage staining, co-localization with FN matrix” value (FN fibrils [1]) was “created a fibrillar pattern that colocalized with the FN matrix better than the other phages”, the “Manders' coefficient with a higher concentration of phage” value (FN fibrils [2]) was “maintenance of the high Manders' coefficient” and the “Manders' Coefficient” value (FN fibrils [2]; overlap of the phage fluorescence with FN, growing fibroblast cultures) was 0.91. The “labeling of FN fibrils with incorporated phage” value (FN fibrils [2]; phage incubated with fibroblasts as they assembled fibrils) was “complete labeling of FN fibrils with incorporated phage” and the “FN matrix accumulation” value (FN matrix assembly) was “did not appear to impact FN matrix assembly”.

For “GST-S3-GFP: fusion protein of GST, S3 peptide and GFP (NHVALWGTGTAS; not fully specified (N-terminus, C-terminus); also: fusion protein, GST dimerising)”, the FN fibril binding (FN fibrils [3]) was “no detectable FN fibril binding” and the “impact on matrix accumulation” value (FN matrix accumulation) was “neither the S3 or S20 fusion proteins showed any matrix binding capacity or impact on matrix accumulation”.

In the case of SDITPWWLLAQD [Clone S20], the “effect on matrix formation” value (FN matrix) is reported as “enhances matrix formation” and the “enhancement of matrix formation” value (FN matrix; incubated with cells during matrix assembly) is reported as 60%.

With DYSYFDLWYSDT [Clone 12, 29] the “Manders' coefficient with a higher concentration of phage” value (FN fibrils [2]) was “the Manders' coefficient did not indicate higher coverage with inclusion of more phage”.

In the case of “S2-GFP: GST-S2-GFP after cleavage of the GST tag (GSYDWTKLPGLE; not fully specified (C-terminus)) [Clone S2-GFP]”, the FN fibril binding (FN fibrils [3]) is reported as “completely ablated FN fibril binding”.

For “GST-S20-GFP: fusion protein of GST, S20 peptide and GFP (SDITPWWLLAQD; not fully specified (N-terminus, C-terminus); also: fusion protein, GST dimerising)”, the FN fibril binding (FN fibrils [3]) was “no detectable FN fibril binding” and the “impact on matrix accumulation” value (FN matrix accumulation) was “neither the S3 or S20 fusion proteins showed any matrix binding capacity or impact on matrix accumulation”.

In the case of SDITPWWLLAQD [Clone 20, 21, 46], the “FN matrix accumulation” value (FN matrix assembly) is reported as “increased FN matrix assembly by two-fold”.

Work on HNQTMWWTFPST (peptide, not shown: large carriers, not fully specified) [M13 phage clone 4 (4, 44) displaying …] yielded a Manders' Coefficient [4] of 0.47.

In the case of AHXRLSGSAPMF-{pIII (M13 phage)} (peptide, not shown: large carriers, not fully specified) [M13 phage clone 7 (7, 22, 38) displaying AHB…], the Manders' Coefficient [4] is reported as 0.39.

Molecule VSGYNVMPLNGD (peptide, not shown: large carriers, not fully specified) [M13 phage clone 1 displaying …] has a Manders' Coefficient [4] of 0.253.

B1: M13 phage clone 39 displaying YSTTMWQYLPGA (peptide)
chain: YSTTMWQYLPGA
modifications: not fully specified (C-terminus)
notes: Whole phage particle stood in the assay; not shown: pIII protein of M13 phage; the peptide is its N-terminal fusion
In the case of B1, the “Manders' Coefficient” value [5] is reported as 0.677.

DHVSLSGRSAAM (peptide, not shown: large carriers, not fully specified) [M13 phage clone 11 displaying …] was tested, and the Manders' Coefficient [4] was 0.173.

For DHIPLRGQRVWQ (peptide, not shown: large carriers, not fully specified) [M13 phage clone 19 (19, 24, 32, 41, 45) displaying …], the Manders' Coefficient [4] was 0.397.

With YVTNWGSLSGSY (peptide, not shown: large carriers, not fully specified) [M13 phage clone 23 displaying …] the Manders' Coefficient [4] was 0.675.

B2: M13 phage clone 12 (12, 29) displaying DYSYFDLWYSDT (peptide)
chain: DYSYFDLWYSDT
modifications: not fully specified (C-terminus)
notes: as for B1
B2 was tested, and the “Manders' Coefficient” value [5] was 0.746.

Work on NHVALWGTGTAS (peptide, not shown: large carriers, not fully specified) [M13 phage clone 3 (3, 5, 27, 28) displaying … (S3)] yielded a Manders' Coefficient [4] of 0.527.

For WHVALTGNNLER (peptide, not shown: large carriers, not fully specified) [M13 phage clone 37 displaying …], the Manders' Coefficient [4] was 0.698.

SITEFNLLPGLW (peptide, not shown: large carriers, not fully specified) [M13 phage clone 6 (6, 35) displaying …] gave a Manders' Coefficient [4] of 0.606.

IAYPTDMSLSYK (peptide, not shown: large carriers, not fully specified) [M13 phage clone 33 displaying …] showed a Manders' Coefficient [4] of 0.56.

SDITPWWLLAQD (peptide, not shown: large carriers, not fully specified) [M13 phage clone 20 (20, 21, 46) displaying … (S20)] was tested, and the matrix formation (FIG. 2 immunoblot) [6] was 60% and the Manders' Coefficient [4] was 0.552.

B3: M13 phage clone 2 (2, 16, 31, 48) displaying GSYDWTKLPGLE (S2) (peptide)
chain: GSYDWTKLPGLE
modifications: not fully specified (C-terminus)
notes: Whole phage particle stood in the assay; also called clone S2; clone s2; not shown: pIII protein of M13 phage; the peptide is its N-terminal fusion
In the case of B3, the “Manders' Coefficient” value [5] is reported as 0.913.

HWSGTHALSGRA (peptide, not shown: large carriers, not fully specified) [M13 phage clone 9 (9, 42) displaying …] gave a Manders' Coefficient [4] of 0.588.
